Reference: FireProtDB
Where “and” joins values, the source holds several entries; their conditions need not be identical. Identical values can stand only once.

B1: Phosphoglycerate kinase, P00560 (parent)
chain: MSLSSKLSVQDLDLKDKRVFIRVDFNVPLDGKKITSNQRIVAALPTIKYVLEHHPRYVVLASHLGRPNGERNEKYSLAPVAKELQSLLGKDVTFLNDCVGPEVEAAVKASAPGSVILLENLRYHIEEEGSRKVDGQKVKASKEDVQKFRHELSSLADVYINDAFGTAHRAHSSMVGFDLPQRAAGFLLEKELKYFGKALENPTRPFLAILGGAKVADKIQLIDNLLDKVDSIIIGGGMAFTFKKVLENTEIGDSIFDKAGAEIVPKLMEKAKAKGVEVVLPVDFIIADAFSADANTKTVTDKEGIPAGWQGLDNGPESRKLFAATVAKAKTIVWNGPPGVFEFEKFAAGTKALLDEVVKSSAAGNTVIIGGGDTATVAKKYGVTDKISHVSTGGGASLELLEGKELPGVAFLSEKK
B2: Alpha-lactalbumin, P00711 (parent)
chain: MMSFVSLLLVGILFHATQAEQLTKCEVFRELKDLKGYGGVSLPEWVCTTFHTSGYDTQAIVQNNDSTEYGLFQINNKIWCKDDQNPHSSNICNISCDKFLDDDLTDDIMCVKKILDKVGINYWLAHKALCSEKLDQWLCEKL
B3: Cytochrome c-552, P15452 (parent)
chain: MKKFLLVAVVGLAGITFANEQLAKQKGCMACHDLKAKKVGPAYADVAKKYAGRKDAVDYLAGKIKKGGSGVWGSVPMPPQNVTDAEAKQLAQWILSIK
B4: Membrane-associated guanylate kinase, WW and PDZ domain-containing protein 1, Q96QZ7 (parent)
chain: MSKVIQKKNHWTSRVHECTVKRGPQGELGVTVLGGAEHGEFPYVGAVAAVEAAGLPGGGEGPRLGEGELLLEVQGVRVSGLPRYDVLGVIDSCKEAVTFKAVRQGGRLNKDLRHFLNQRFQKGSPDHELQQTIRDNLYRHAVPCTTRSPREGEVPGVDYNFLTVKEFLDLEQSGTLLEVGTYEGNYYGTPKPPSQPVSGKVITTDALHSLQSGSKQSTPKRTKSYNDMQNAGIVHAENEEEDDVPEMNSSFTADSGEQEEHTLQETALPPVNSSIIAAPITDPSQKFPQYLPLSAEDNLGPLPENWEMAYTENGEVYFIDHNTKTTSWLDPRCLNKQQKPLEECEDDEGVHTEELDSELELPAGWEKIEDPVYGIYYVDHINRKTQYENPVLEAKRKKQLEQQQQQQQQQQQQQQQQQQQQTEEWTEDHSALVPPVIPNHPPSNPEPAREVPLQGKPFFTRNPSELKGKFIHTKLRKSSRGFGFTVVGGDEPDEFLQIKSLVLDGPAALDGKMETGDVIVSVNDTCVLGHTHAQVVKIFQSIPIGASVDLELCRGYPLPFDPDDPNTSLVTSVAILDKEPIIVNGQETYDSPASHSSKTGKVNGMKDARPSSPADVASNSSHGYPNDTVSLASSIATQPELITVHIVKGPMGFGFTIADSPGGGGQRVKQIVDSPRCRGLKEGDLIVEVNKKNVQALTHNQVVDMLVECPKGSEVTLLVQRGGLPVPKKSPKSQPLERKDSQNSSQHSVSSHRSLHTASPSHSTQVLPEFPPAEAQAPDQTDSSGQKKPDPFKIWAQSRSMYENRPMSPSPASGLSKGEREREINSTNFGECPIPDYQEQDIFLWRKETGFGFRILGGNEPGEPIYIGHIVPLGAADTDGRLRSGDELICVDGTPVIGKSHQLVVQLMQQAAKQGHVNLTVRRKVVFAVPKTENEVPSPASSHHSSNQPASLTEEKRTPQGSQNSLNTVSSGSGSTSGIGSGGGGGSGVVSTVVQPYDVEIRRGENEGFGFVIVSSVSRPEAGTTFAGNACVAMPHKIGRIIEGSPADRCGKLKVGDRILAVNGCSITNKSHSDIVNLIKEAGNTVTLRIIPGDESSNATLLTNAEKIATITTTHTPSQQGTQETRNTTKPKQESQFEFKAPQATQEQDFYTVELERGAKGFGFSLRGGREYNMDLYVLRLAEDGPAERCGKMRIGDEILEINGETTKNMKHSRAIELIKNGGRRVRLFLKRGDGSVPEYDPSSDRHGPATGPQGVPEVRAGPDRRQHPSLESSYPPDLHKSSPHGEKRAHARDPKGSREYSRQPNEHHTWNGTSRKPDSGACRPKDRAPEGRRDAQAERAAAANGPKRRSPEKRREGTRSADNTLERREKHEKRRDVSPERRRERSPTRRRDGSPSRRRRSLERLLEQRRSPERRRGGSPERRAKSTDRRRARSPERRRERSLDKRNREDRASHREREEANLKQDAGRSSRHPPEQRRRPYKECSTDLSI
B5: Ribose import binding protein RbsB, P02925 (parent)
chain: MNMKKLATLVSAVALSATVSANAMAKDTIALVVSTLNNPFFVSLKDGAQKEADKLGYNLVVLDSQNNPAKELANVQDLTVRGTKILLINPTDSDAVGNAVKMANQANIPVITLDRQATKGEVVSHIASDNVLGGKIAGDYIAKKAGEGAKVIELQGIAGTSAARERGEGFQQAVAAHKFNVLASQPADFDRIKGLNVMQNLLTAHPDVQAVFAQNDEMALGALRALQTAGKSDVMVVGFDGTPDGEKAVNDGKLAATIAQLPDQIGAKGVETADKVLKGEKVQAKYPVDLKLVVKQ
B6: Chemotaxis protein CheY, P0AE67 (parent)
chain: MADKELKFLVVDDFSTMRRIVRNLLKELGFNNVEEAEDGVDALNKLQAGGYGFVISDWNMPNMDGLELLKTIRADGAMSALPVLMVTAEAKKENIIAAAQAGASGYVVKPFTAATLEEKLNKIFEKLGM
B7: N-(5'-phosphoribosyl)anthranilate isomerase, P00912 (parent)
chain: MSVINFTGSSGPLVKVCGLQSTEAAECALDSDADLLGIICVPNRKRTIDPVIARKISSLVKAYKNSSGTPKYLVGVFRNQPKEDVLALVNDYGIDIVQLHGDESWQEYQEFLGLPVIKRLVFPKDCNILLSAASQKPHSFIPLFDSEAGGTGELLDWNSISDWVGRQESPESLHFMLAGGLTPENVGDALRLNGVIGVDVSGGVETNGVKDSNKIANFVKNAKK
B8: Dihydrofolate reductase type 2, P00383 (parent)
chain: MERSSNEVSNPVAGNFVFPSNATFGMGDRVRKKSGAAWQGQIVGWYCTNLTPEGYAVESEAHPGSVQIYPVAALERIN
B9: Persulfide dioxygenase ETHE1, mitochondrial, O95571 (parent)
chain: MAEAVLRVARRQLSQRGGSGAPILLRQMFEPVSCTFTYLLGDRESREAVLIDPVLETAPRDAQLIKELGLRLLYAVNTHCHADHITGSGLLRSLLPGCQSVISRLSGAQADLHIEDGDSIRFGRFALETRASPGHTPGCVTFVLNDHSMAFTGDALLIRGCGRTDFQQGCAKTLYHSVHEKIFTLPGDCLIYPAHDYHGFTVSTVEEERTLNPRLTLSCEEFVKIMGNLNLPKPQQIDFAVPANMRCGVQTPTA
B10: SNARE-associated protein Snapin, O95295 (parent)
chain: MAGAGSAAVSGAGTPVAGPTGRDLFAEGLLEFLRPAVQQLDSHVHAVRESQVELREQIDNLATELCRINEDQKVALDLDPYVKKLLNARRRVVLVNNILQNAQERLRRLNHSVAKETARRRAMLDSGIYPPGSPGK
B11: Aspartate aminotransferase, P00509 (parent)
chain: MFENITAAPADPILGLADLFRADERPGKINLGIGVYKDETGKTPVLTSVKKAEQYLLENETTKNYLGIDGIPEFGRCTQELLFGKGSALINDKRARTAQTPGGTGALRVAADFLAKNTSVKRVWVSNPSWPNHKSVFNSAGLEVREYAYYDAENHTLDFDALINSLNEAQAGDVVLFHGCCHNPTGIDPTLEQWQTLAQLSVEKGWLPLFDFAYQGFARGLEEDAEGLRAFAAMHKELIVASSYSKNFGLYNERVGACTLVAADSETVDRAFSQMKAAIRANYSNPPAHGASVVATILSNDALRAIWEQELTDMRQRIQRMRQLFVNTLQEKGANRDFSFIIKQNGMFSFSGLTKEQVLRLREEFGVYAVASGRVNVAGMTPDNMAPLCEAIVAVL

Variants of: B1
Settings: Saccharomyces cerevisiae (strain ATCC 204508 / S288c); pH 6.2; 20 °C; Thermal; CD; potassium phosphate 20 mM; structure 3PGK; whole UniProt chain shown

Row | Variant | unfolding free energy [kcal/mol]
1 | W334F | 5.16
2 | W309F W334F Y123W | 5.23

Same assay, conditions: Saccharomyces cerevisiae (strain ATCC 204508 / S288c); pH 7.5; 22 °C; GdnHCl; CD; Tris 20 mM; structure 3PGK; whole UniProt chain shown

Row | Variant | ddG of mutation (higher = less stable) [kcal/mol] | denaturant midpoint (higher = more stable) [M] | unfolding free energy [kcal/mol]
3 | W334F | -2.2 | 0.64 | 10

Same assay, conditions: Saccharomyces cerevisiae (strain ATCC 204508 / S288c); pH 6.2; 20 °C; GdnHCl; CD; potassium phosphate 50 mM; structure 3PGK; whole UniProt chain shown

Row | Variant | denaturant m value [kcal/mol/M] | unfolding free energy [kcal/mol]
4 | W309F W334F Y123W | 14 | 5.71

Variants of: B2
Settings: Bos taurus; pH 8; Thermal; Fluorescence; HEPES 10 mM; CaCl2 1 mM; structure 1HFZ; whole UniProt chain shown

Row | Variant | Tm [°C] | change of melting temperature, mutant - wild type (higher = more stable) [°C]
5 | D106N | 31.4 | 6.8

Variants of: B3
Settings: Hydrogenobacter thermophilus (strain DSM 6534 / IAM 12695 / TK-6); pH 7; Thermal; CD; reversible: yes; structure 1YNR; whole UniProt chain shown

Row | Variant | change of melting temperature, mutant - wild type (higher = more stable)
6 | A91V | -7.5 °C and -2.9 °C

Variants of: B4
Settings: Homo sapiens; pH 7; Thermal; CD; Tris-HCl 20 mM; NaCl 100 mM; structure 2ZAJ; whole UniProt chain shown

Row | Variant | unfolding enthalpy (calorimetric) | unfolding enthalpy (van 't Hoff)
7 | D370S | 14.4 kcal/mol and 9.15 kcal/mol | 9.37 kcal/mol and 9.15 kcal/mol

Variants of: B5
Settings: Escherichia coli (strain K12); pH 7.7; 25 °C; GdnHCl; Fluorescence; HEPES 10 mM; reversible: yes; structure 2DRI; whole UniProt chain shown

Row | Variant | unfolding free energy [kcal/mol]
8 | A52T | 1.8

Variants of: B6
Settings: Escherichia coli (strain K12); pH 7; 25 °C; Urea; Fluorescence; Cacodylate 100 mM; structure 1CEY; whole UniProt chain shown

Row | Variant | ddG of mutation (higher = less stable) [kcal/mol] | unfolding free energy [kcal/mol]
9 | D57A | -3.3 | 8.9
10 | D12A | -2.5 | 8.1
11 | D13A | -2.7 | 8.3

Variants of: B7
Settings: Saccharomyces cerevisiae (strain ATCC 204508 / S288c); pH 6.5; 23 °C; GdnHCl; CD; Potassium phosphate 0.05 M; reversible: yes; whole UniProt chain shown

Row | Variant | ddG of mutation (higher = less stable) [kcal/mol]
12 | S212C | 1

Variants of: B8
Settings: Escherichia coli; pH 5; 22 °C; GdnHCl; CD; phosphate 10 mM; structure 1VIE; whole UniProt chain shown

Row | Variant | unfolding free energy
13 | W38F | 15.3 kcal/mol and 15.6 kcal/mol
14 | W45F | 13.6 kcal/mol and 12.7 kcal/mol

Variants of: B9
Settings: Homo sapiens; pH 7.5; Thermal; CD; Tris-HCl 50mM; NaCl 150mM; transition: 2; structure 4CHL; whole UniProt chain shown

Row | Variant | Tm [°C] | change of melting temperature, mutant - wild type (higher = more stable) [°C]
15 | R163W | 52 | -10
16 | R163Q | 55 | -7

Variants of: B10
Settings: Homo sapiens; pH 7; Thermal; absorbance; Phosphate buffer; transition: 2; reversible: yes; whole UniProt chain shown

Row | Variant | Tm [°C] | change of melting temperature, mutant - wild type (higher = more stable) [°C]
17 | C66S | 72.4 | 1.4

Same assay, conditions: Homo sapiens; pH 7.4; Thermal; CD; Tris 50 mM; whole UniProt chain shown

Row | Variant | Tm [°C] | change of melting temperature, mutant - wild type (higher = more stable) [°C]
18 | C66S | 60.1 | 2.2

Variants of: B11
Settings: Escherichia coli (strain K12); pH 7.5; 25 °C; Urea; enzyme activity; potassium phosphate 20 mM; structure 1AMQ; whole UniProt chain shown

Row | Variant | unfolding free energy [kcal/mol]
19 | C180W | 6.1
20 | C180F | 8.4
21 | C180Y | 7.7
22 | C180S | 8.1
